# Reference: publication PMC2777425
# T1: K752G844 (winged-helix domain) (UniProt Q54324 752-844)
# T1 sequence: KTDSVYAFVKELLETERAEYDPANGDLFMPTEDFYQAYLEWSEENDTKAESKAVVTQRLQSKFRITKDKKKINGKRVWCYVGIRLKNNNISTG
# Target: T1, K752G844 (winged-helix domain)
# Test: fluorescence anisotropy
binder,measurement,value
TCTTCTGTGCACTCTTC (ssDNA) [17-mer ss],apparent K (half saturation),1600 nM
